{"source": "paper PMC3093752", "target": "T1, DNA polymerase kappa catalytic core (Polκ19-526) (human, UniProt Q9UBT6 19-526)", "T1 sequence": "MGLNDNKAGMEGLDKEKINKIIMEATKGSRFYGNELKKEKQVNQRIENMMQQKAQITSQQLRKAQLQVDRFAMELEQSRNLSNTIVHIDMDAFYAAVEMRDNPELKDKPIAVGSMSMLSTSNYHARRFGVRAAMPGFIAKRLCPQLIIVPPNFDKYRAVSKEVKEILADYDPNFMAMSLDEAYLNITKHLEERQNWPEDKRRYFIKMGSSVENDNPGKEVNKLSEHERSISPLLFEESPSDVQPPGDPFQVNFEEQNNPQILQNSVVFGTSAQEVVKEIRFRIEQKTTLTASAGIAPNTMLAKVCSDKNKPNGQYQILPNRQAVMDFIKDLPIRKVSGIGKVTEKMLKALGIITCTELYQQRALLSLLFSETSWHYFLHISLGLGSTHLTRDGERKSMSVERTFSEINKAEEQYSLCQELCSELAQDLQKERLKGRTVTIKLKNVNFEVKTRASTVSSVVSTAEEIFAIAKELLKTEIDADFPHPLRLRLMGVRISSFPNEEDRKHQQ", "test": "X-ray crystallography"}
{"binder": "13-nt/18-nt primer/template with cis-syn T-T dimer (dsDNA, cis-syn cyclobutane thymine dimer in template (T5-T6, position from pairing with primer); 3'-terminal dideoxyadenosine on primer) DNA 1: TTCCTTGGTCCTTCCCCC DNA 2: GGGGGAAGGACCA", "values": [{"measurement": "binding result", "value": "binds"}]}
